The values below come from patent publication US20060024723A1.

The experiment addresses oncofetal fibronectin (human) (UniProt P02751). The experiment is described as follows: lateral flow sandwich; FDC-6 blue latex conjugate and immobilised goat anti-fibronectin; TLiIQ reflectance reader. The note with it: scale: reflectance signal.
Chain of UniProt P02751 (P02751 32-2477): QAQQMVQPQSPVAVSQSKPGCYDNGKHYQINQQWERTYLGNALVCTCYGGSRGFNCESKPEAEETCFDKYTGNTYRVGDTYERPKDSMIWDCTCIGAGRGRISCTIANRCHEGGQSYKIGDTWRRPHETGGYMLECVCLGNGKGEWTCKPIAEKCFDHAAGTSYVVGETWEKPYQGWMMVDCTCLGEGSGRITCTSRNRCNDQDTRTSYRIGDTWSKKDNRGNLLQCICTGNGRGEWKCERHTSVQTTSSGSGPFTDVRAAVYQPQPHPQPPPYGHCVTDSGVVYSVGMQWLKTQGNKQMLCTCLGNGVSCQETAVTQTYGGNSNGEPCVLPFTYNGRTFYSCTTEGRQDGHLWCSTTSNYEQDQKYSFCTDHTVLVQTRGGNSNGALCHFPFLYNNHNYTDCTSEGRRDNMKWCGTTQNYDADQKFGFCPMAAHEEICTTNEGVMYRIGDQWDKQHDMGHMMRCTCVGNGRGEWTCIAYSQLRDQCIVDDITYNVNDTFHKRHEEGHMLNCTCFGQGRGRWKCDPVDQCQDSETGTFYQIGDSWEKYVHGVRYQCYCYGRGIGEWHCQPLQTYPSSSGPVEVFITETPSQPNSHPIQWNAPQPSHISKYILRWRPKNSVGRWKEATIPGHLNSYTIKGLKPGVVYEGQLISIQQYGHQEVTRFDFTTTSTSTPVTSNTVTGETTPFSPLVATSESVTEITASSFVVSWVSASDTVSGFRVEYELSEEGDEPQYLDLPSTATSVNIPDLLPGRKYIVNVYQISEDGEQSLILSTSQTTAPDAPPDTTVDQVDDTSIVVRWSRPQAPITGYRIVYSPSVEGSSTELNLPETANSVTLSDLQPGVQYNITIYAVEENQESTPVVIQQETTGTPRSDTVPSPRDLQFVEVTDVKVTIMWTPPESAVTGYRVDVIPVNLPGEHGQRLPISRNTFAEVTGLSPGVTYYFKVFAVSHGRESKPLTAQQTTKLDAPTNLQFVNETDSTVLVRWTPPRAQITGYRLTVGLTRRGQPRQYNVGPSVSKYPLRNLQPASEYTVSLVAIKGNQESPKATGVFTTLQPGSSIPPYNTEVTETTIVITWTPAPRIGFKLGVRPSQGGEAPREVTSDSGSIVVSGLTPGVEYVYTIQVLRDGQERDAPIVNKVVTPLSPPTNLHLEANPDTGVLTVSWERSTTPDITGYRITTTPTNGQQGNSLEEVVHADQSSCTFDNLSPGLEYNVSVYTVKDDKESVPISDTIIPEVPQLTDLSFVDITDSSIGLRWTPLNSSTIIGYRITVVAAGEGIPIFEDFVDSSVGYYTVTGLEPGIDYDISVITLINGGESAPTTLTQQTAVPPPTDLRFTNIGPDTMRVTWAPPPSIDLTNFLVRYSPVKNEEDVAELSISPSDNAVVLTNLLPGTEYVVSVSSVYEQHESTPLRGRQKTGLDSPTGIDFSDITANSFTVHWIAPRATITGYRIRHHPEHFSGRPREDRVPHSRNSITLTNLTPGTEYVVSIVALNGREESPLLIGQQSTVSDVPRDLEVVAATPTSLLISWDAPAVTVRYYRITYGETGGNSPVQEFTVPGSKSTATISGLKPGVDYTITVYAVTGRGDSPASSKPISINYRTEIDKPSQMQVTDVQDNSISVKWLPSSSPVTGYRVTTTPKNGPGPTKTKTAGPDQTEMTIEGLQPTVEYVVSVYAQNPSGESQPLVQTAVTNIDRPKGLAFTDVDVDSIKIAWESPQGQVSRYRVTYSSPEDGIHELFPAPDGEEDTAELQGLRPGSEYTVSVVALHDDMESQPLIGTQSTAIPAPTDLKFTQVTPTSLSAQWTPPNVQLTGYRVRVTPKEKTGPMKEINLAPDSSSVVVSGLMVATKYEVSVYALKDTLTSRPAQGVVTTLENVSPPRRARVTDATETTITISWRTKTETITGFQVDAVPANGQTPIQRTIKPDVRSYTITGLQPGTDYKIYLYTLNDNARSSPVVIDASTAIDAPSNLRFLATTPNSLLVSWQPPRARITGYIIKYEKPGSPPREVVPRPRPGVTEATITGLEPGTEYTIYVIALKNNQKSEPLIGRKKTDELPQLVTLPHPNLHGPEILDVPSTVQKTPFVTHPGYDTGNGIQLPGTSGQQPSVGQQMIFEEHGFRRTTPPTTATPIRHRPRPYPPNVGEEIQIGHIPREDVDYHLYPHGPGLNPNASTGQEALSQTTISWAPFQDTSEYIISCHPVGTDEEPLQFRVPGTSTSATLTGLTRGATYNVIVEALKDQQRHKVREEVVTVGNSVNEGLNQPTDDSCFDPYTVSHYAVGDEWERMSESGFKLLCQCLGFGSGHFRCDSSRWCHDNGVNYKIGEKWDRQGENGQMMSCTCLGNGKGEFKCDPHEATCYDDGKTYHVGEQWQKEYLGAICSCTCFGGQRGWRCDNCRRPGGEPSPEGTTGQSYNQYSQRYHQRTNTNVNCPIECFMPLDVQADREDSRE

The substance “monoclonal antibody FDC-6, produced by the hybridoma ATCC HB 9018” returned a reflectance signal of 0.315.
